These results are taken from patent CN115819578A (WUHAN ABCLONAL INC, dated 2023).

The target of this assay is T1, 重组人IL-5蛋白 (recombinant Human IL-5, R&D Systems 205-IL-005) (human, UniProt P05113 20-134).
T1 construct: Bought protein; also called 重组human IL-5; His-tag重组human IL-5
T1 sequence (looked up): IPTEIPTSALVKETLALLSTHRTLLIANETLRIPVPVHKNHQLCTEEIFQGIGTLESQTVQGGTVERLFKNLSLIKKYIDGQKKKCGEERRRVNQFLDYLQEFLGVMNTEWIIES
Kind of assay: BLI (Probe Life Gator), antibody 2 μg/mL on proA probe, recombinant human IL-5 at 150 nM and 70 nM.

B1: 兔单克隆抗体24A10 (anti-human IL-5 rabbit monoclonal antibody 24A10) (antibody, V domains shown)
VH: QSLEESGGGLVQPEGSLTLTCTASGFSFSSSYYMCWVRQAPGKGLEWIGCIAAGSSGISYYASWAKGRFTISKTSSTTVTLQMTGLTAADTATYLCSRSCDIYSDGGTSFDLWGPGTLVTVSS
VL: DVVMTQTPASVSEPVGGTVTIKCQASQSISSYLAWYQQKPGQPPKLLIYEASKLASGVPSRFKGSGSGTEFTLTISDLECADAATYYCESNYDITSSYFGGGTEVVVKG
notes: in the BLI assays it was unlabelled; also called 24A10抗体; 人IL-5兔单克隆抗体24A10
For B1, the Kd (usually the concentration at which binding is half-saturated) came to 0.306 nM.

B2: 兔单克隆抗体16D2 (anti-human IL-5 rabbit monoclonal antibody 16D2) (antibody, V domains shown)
VH: QEQLEESGGDLVKPEGSLTLTCTASGFSFSINYWICWVRQAPGKGLEWIACIYGGSSGSAYYATWAKGRFTISKTSSTTVTLQMTSLTAADTATYFCARDDEGGGIFYNLWGPGTLVTVSS
VL: AYDMTQTPSSASEPVGGTVTIKCQASEDIYNLLAWYQQKPGQPPKLLIYSASTLASGVPSRFKGSGSGTEYTLTISDLECADAATYYCEQHYTPSNVHNTFGGGTEVVVKG
notes: also called 16D2抗体; 抗人IL-5兔单克隆抗体16D2
As to B2, the Kd turned out to be 4.03 nM.
